# The supplement of paper PMC11246515
# ± gives the standard deviation of the averaged measurements.
# Assay: total protein half-life in vivo (active degradation + dilution); higher = more stable protein
# [1] = E. coli NCM3722 delta-clpP delta-lon delta-hslV, growth: N-lim chemostat, doubling time 6 h
# [2] = E. coli NCM3722 delta-clpP, growth: N-lim chemostat, doubling time 6 h
# [3] = E. coli NCM3722 delta-hslV, growth: N-lim chemostat, doubling time 6 h
# [4] = E. coli NCM3722 delta-lon, growth: N-lim chemostat, doubling time 6 h
# [5] = E. coli NCM3722 delta-smpB, growth: N-lim chemostat, doubling time 6 h
# [6] = wild type E. coli NCM3722, growth: C-lim chemostat, doubling time 3 h
# [7] = wild type E. coli NCM3722, growth: C-lim chemostat, doubling time 6 h
# [8] = wild type E. coli NCM3722, growth: C-lim chemostat, doubling time 12 h
# [9] = wild type E. coli NCM3722, growth: N-lim chemostat, doubling time 6 h
# [10] = wild type E. coli NCM3722, growth: N-lim chemostat, doubling time 12 h
# [11] = wild type E. coli NCM3722, growth: P-lim chemostat, doubling time 6 h
# [12] = wild type E. coli NCM3722, growth: P-lim chemostat, doubling time 12 h
sequence,measurement,setting,value
MTITKLAWRDLVPDTDSYQEIFAQPHLIDENDPLFSDTQPRLQFALEQLLHTRASSSFMLAKAPEESEYLNLIANAARTLQSDAGQLVGGHYEVSGHSIRLRHAVSADDNFATLTQVVAADWVEAEQLFGCLRQFNGDITLQPGLVHQANGGILIISLRTLLAQPLLWMRLKNIVNRERFDWVAFDESRPLPVSVPSMPLKLKVILVGERESLADFQEMEPELSEQAIYSEFEDTLQIVDAESVTQWCRWVTFTARHNHLPAPGADAWPILIREAARYTGEQETLPLSPQWILRQCKEVASLCDGDTFSGEQLNLMLQQREWREGFLAERMQDEILQEQILIETEGERIGQINALSVIEFPGHPRAFGEPSRISCVVHIGDGEFTDIERKAELGGNIHAKGMMIMQAFLMSELQLEQQIPFSASLTFEQSYSEVDGDSASMAELCALISALADVPVNQSIAITGSVDQFGRAQPVGGLNEKIEGFFAICQQRELTGKQGVIIPTANVRHLSLHSELVKAVEEGKFTIWAVDDVTDALPLLLNLVWDGEGQTTLMQTIQERIAQASQQEGRHRFPWPLRWLNWFIPN,total protein half-life in vivo,[1],6.81 ± 0.57 h
same,total protein half-life in vivo,[2],6.24 ± 0.11 h
same,total protein half-life in vivo,[3],7.24 ± 1.1 h
same,total protein half-life in vivo,[4],6 ± 0.53 h
same,total protein half-life in vivo,[5],6.58 ± 0.43 h
same,total protein half-life in vivo,[6],3.017 ± 0.024 h
same,total protein half-life in vivo,[7],5.99 ± 0.54 h
same,total protein half-life in vivo,[8],9.75 ± 2.2 h
same,total protein half-life in vivo,[9],6.17 ± 0.21 h
same,total protein half-life in vivo,[10],13.7 ± 1.1 h
same,total protein half-life in vivo,[11],6.4 ± 0.075 h
same,total protein half-life in vivo,[12],12.6 ± 1.4 h
MTITPATHAISINPATGEQLSVLPWAGADDIENALQLAAAGFRDWRETNIDYRAEKLRDIGKALRARSEEMAQMITREMGKPINQARAEVAKSANLCDWYAEHGPAMLKAEPTLVENQQAVIEYRPLGTILAIMPWNFPLWQVMRGAVPIILAGNGYLLKHAPNVMGCAQLIAQVFKDAGIPQGVYGWLNADNDGVSQMIKDSRIAAVTVTGSVRAGAAIGAQAGAALKKCVLELGGSDPFIVLNDADLELAVKAAVAGRYQNTGQVCAAAKRFIIEEGIASAFTERFVAAAAALKMGDPRDEENALGPMARFDLRDELHHQVEKTLAQGARLLLGGEKMAGAGNYYPPTVLANVTPEMTAFREEMFGPVAAITIAKDAEHALELANDSEFGLSATIFTTDETQARQMAARLECGGVFINGYCASDARVAFGGVKKSGFGRELSHFGLHEFCNIQTVWKDRI,total protein half-life in vivo,[1],3.43 ± 0.22 h
same,total protein half-life in vivo,[2],2.38 ± 0.15 h
same,total protein half-life in vivo,[3],2.3185 ± 0.00041 h
same,total protein half-life in vivo,[4],3.35 ± 0.57 h
same,total protein half-life in vivo,[5],2.62 ± 0.24 h
same,total protein half-life in vivo,[6],2.87 ± 0.15 h
same,total protein half-life in vivo,[7],4.72 ± 0.27 h
same,total protein half-life in vivo,[8],7.87 ± 0.72 h
same,total protein half-life in vivo,[9],2.56 ± 0.092 h
same,total protein half-life in vivo,[10],3.65 ± 0.4 h
same,total protein half-life in vivo,[11],5.341 ± 0.022 h
same,total protein half-life in vivo,[12],9.54 ± 0.88 h
MTITPQNLIALLPLLIVGLTVVVVMLSIAWRRNHFLNATLSVIGLNAALVSLWFVGQAGAMDVTPLMRVDGFAMLYTGLVLLASLATCTFAYPWLEGYNDNKDEFYLLVLIAALGGILLANANHLASLFLGIELISLPLFGLVGYAFRQKRSLEASIKYTILSAAASSFLLFGMALVYAQSGDLSFVALGKNLGDGMLNEPLLLAGFGLMIVGLGFKLSLVPFHLWTPDVYQGAPAPVSTFLATASKIAIFGVVMRLFLYAPVGDSEAIRVVLAIIAFASIIFGNLMALSQTNIKRLLGYSSISHLGYLLVALIALQTGEMSMEAVGVYLAGYLFSSLGAFGVVSLMSSPYRGPDADSLFSYRGLFWHRPILAAVMTVMMLSLAGIPMTLGFIGKFYVLAVGVQAHLWWLVGAVVVGSAIGLYYYLRVAVSLYLHAPEQPGRDAPSNWQYSAGGIVVLISALLVLVLGVWPQPLISIVRLAMPLM [P0AFF0],total protein half-life in vivo,[1],7.16 h
same,total protein half-life in vivo,[2],6.36 ± 0.41 h
same,total protein half-life in vivo,[3],6.09 ± 1.6 h
same,total protein half-life in vivo,[5],6.08 h
same,total protein half-life in vivo,[6],3.46 h
same,total protein half-life in vivo,[9],5.29 h
same,total protein half-life in vivo,[12],11.8 ± 1.4 h
MTIVRIDAEARWSDVVIHNNTLYYTGVPENLDADAFEQTANTLAQIDAVLEKQGSNKSSILDATIFLADKNDFAAMNKAWDAWVVAGHAPVRCTVQAGLMNPKYKVEIKIVAAV [P0AEB7],total protein half-life in vivo,[1],5.7 ± 0.14 h
same,total protein half-life in vivo,[2],5.4 ± 0.17 h
same,total protein half-life in vivo,[3],4.95 ± 0.36 h
same,total protein half-life in vivo,[4],5.51 ± 0.45 h
same,total protein half-life in vivo,[5],5.45 ± 0.95 h
same,total protein half-life in vivo,[6],3.02 ± 0.18 h
same,total protein half-life in vivo,[7],7.21 ± 0.84 h
same,total protein half-life in vivo,[8],13.5 ± 0.29 h
same,total protein half-life in vivo,[9],6.27 ± 1.3 h
same,total protein half-life in vivo,[10],11.2 ± 0.66 h
same,total protein half-life in vivo,[11],6.16 ± 0.16 h
same,total protein half-life in vivo,[12],12 ± 2.1 h
MTKHYDYIAIGGGSGGIASINRAAMYGQKCALIEAKELGGTCVNVGCVPKKVMWHAAQIREAIHMYGPDYGFDTTINKFNWETLIASRTAYIDRIHTSYENVLGKNNVDVIKGFARFVDAKTLEVNGETITADHILIATGGRPSHPDIPGVEYGIDSDGFFALPALPERVAVVGAGYIAVELAGVINGLGAKTHLFVRKHAPLRSFDPMISETLVEVMNAEGPQLHTNAIPKAVVKNTDGSLTLELEDGRSETVDCLIWAIGREPANDNINLEAAGVKTNEKGYIVVDKYQNTNIEGIYAVGDNTGAVELTPVAVAAGRRLSERLFNNKPDEHLDYSNIPTVVFSHPPIGTVGLTEPQAREQYGDDQVKVYKSSFTAMYTAVTTHRQPCRMKLVCVGSEEKIVGIHGIGFGMDEMLQGFAVALKMGATKKDFDNTVAIHPTAAEEFVTMR,total protein half-life in vivo,[1],5.12 ± 0.23 h
same,total protein half-life in vivo,[2],5.46 ± 0.48 h
same,total protein half-life in vivo,[3],4.85 ± 0.18 h
same,total protein half-life in vivo,[4],5.81 ± 0.49 h
same,total protein half-life in vivo,[5],4.64 ± 0.066 h
same,total protein half-life in vivo,[6],3.02 ± 0.17 h
same,total protein half-life in vivo,[7],6.27 ± 0.5 h
same,total protein half-life in vivo,[8],11.5 ± 0.61 h
same,total protein half-life in vivo,[9],5.08 ± 0.14 h
same,total protein half-life in vivo,[10],8.33 ± 0.71 h
same,total protein half-life in vivo,[11],6.07 ± 0.31 h
same,total protein half-life in vivo,[12],13 ± 0.92 h
MTKKKAHKPGSATIALNKRARHEYFIEEEFEAGLALQGWEVKSLRAGKANISDSYVLLRDGEAFLFGANITPMAVASTHVVCDPTRTRKLLLNQRELDSLYGRVNREGYTVVALSLYWKNAWCKVKIGVAKGKKQHDKRSDIKEREWQVDKARIMKNAHR [P0A832],total protein half-life in vivo,[1],6.34 ± 0.4 h
same,total protein half-life in vivo,[2],6.17 ± 1.2 h
same,total protein half-life in vivo,[3],6.55 ± 0.43 h
same,total protein half-life in vivo,[6],3.07 ± 0.46 h
same,total protein half-life in vivo,[8],13.1 ± 0.6 h
same,total protein half-life in vivo,[9],5.94 ± 0.25 h
same,total protein half-life in vivo,[11],5.73 ± 0.2 h
same,total protein half-life in vivo,[12],11.7 ± 0.31 h
MTKKLHIKTWGCQMNEYDSSKMADLLDATHGYQLTDVAEEADVLLLNTCSIREKAQEKVFHQLGRWKLLKEKNPDLIIGVGGCVASQEGEHIRQRAHYVDIIFGPQTLHRLPEMINSVRGDRSPVVDISFPEIEKFDRLPEPRAEGPTAFVSIMEGCNKYCTYCVVPYTRGEEVSRPSDDILFEIAQLAAQGVREVNLLGQNVNAWRGENYDGTTGSFADLLRLVAAIDGIDRIRFTTSHPIEFTDDIIEVYRDTPELVSFLHLPVQSGSDRILNLMGRTHTALEYKAIIRKLRAARPDIQISSDFIVGFPGETTEDFEKTMKLIADVNFDMSYSFIFSARPGTPAADMVDDVPEEEKKQRLYILQERINQQAMAWSRRMLGTTQRILVEGTSRKSIMELSGRTENNRVVNFEGTPDMIGKFVDVEITDVYPNSLRGKVVRTEDEMGLRVAETPESVIARTRKENDLGVGYYQP [P0AEI1],total protein half-life in vivo,[1],4.82 ± 0.13 h
same,total protein half-life in vivo,[2],2.04 ± 0.24 h
same,total protein half-life in vivo,[3],1.57 ± 0.14 h
same,total protein half-life in vivo,[4],2.12 ± 0.29 h
same,total protein half-life in vivo,[5],1.54 ± 0.098 h
same,total protein half-life in vivo,[6],1.5 ± 0.018 h
same,total protein half-life in vivo,[7],2.18 ± 0.19 h
same,total protein half-life in vivo,[8],2.62 ± 0.22 h
same,total protein half-life in vivo,[9],1.632 ± 0.015 h
same,total protein half-life in vivo,[10],2.12 ± 0.027 h
same,total protein half-life in vivo,[11],1.97 ± 0.35 h
same,total protein half-life in vivo,[12],3.75 ± 0.39 h
